Data published in patent US9725702B2, “Laccase from ganoderma lucidum capable of enhancing enzymatic degradation of lignocellulolytic biomass” (DANMARKS TEKNISKE UNIVERSITET, priority 2012, dated 2017).

Key:
[1] = Michaelis constant (Km) of laccase for ABTS, Hanes-Wolf plot; format: biochemical; details: substrate ABTS
[2] = Glucose release in LacGL1-cellulase (Cellic CTec1, CTec2) catalyzed hydrolysis of STEX SCB; format: biochemical
Procedure: FIG. 11. A graphical comparison of yields of released glucose over time in LacGL1-Cellic® CTec1 catalyzed hydrolysis STEX-SCB at different pH and temperatures. The cellulase preparation is Cellic® CTec1 (CC1) and laccase was Ganoderma lucidum LacGL1 expressed in Pichia pastoris X-33. CC1 and LacGL1 were added in E/S ratio of 0.064%, and 0.4% (w/w), respectively.
FIG. 12. A graphical comparison of the yields of released glucose over time in LacGL1-Cellic® CTec2 catalyzed hydrolysis of STEX-SCB at different pH and temperatures. The cellulase preparation is Cellic® CTec2 (CC2) and laccase was Ganoderma lucidum LacGL1 expressed in Pichia pastoris X-33. […] and LacGL1 were added in E/S ratio of 0.064%, and 0.4% (w/w), respectively.
5% (w/v) dry matter of pretreated SCB (STEX SCB) was evaluated in 0.1 M citrate-phosphate buffer at pH 4.7 and 40° C. (optimal for the LacGL1 laccase) or pH 5.1 and 50° C. (optimal for the cellulase preparations), respectively. The commercially available cellulase cocktail preparations: Cellic® CTec1 and Cellic® CTec2 (0.064% Enzyme/Substrate ratio (E/S), w/w; Novozymes, Bagsværd, Denmark) were used with the combination of the LacGL1 laccase (0.4% E/S, w/w). The hydrolysis reactions were collected after 0, 1, 3, 5, 16, and 24 hours and stopped by incubation at 99° C. for 15 min. The samples were then centrifuged at 10.000 rpm for 2 min., the supernatants were filtered through 0.2 μm filter and the yields of released glucose were quantified using the D-glucose-HK kit (Megazyme, Denmark). The glucose yields released over time were corrected for the glucose content of the hydrolysis sample at time 0. The E/S dosage was based on the total protein concentration used. The protein quantification was performed using the Pierce BCA (BiCinchoninic Acid) protein assay kit microplate procedure according to manufacturer's instructions (Thermo Fisher Scientific, Rockford, US) using Bovine serum albumin (BSA) was used as a standard, as described before (Silva et al. 2011). The Cellic® CTec1 (CC1) and Cellic® CTec2 (CC2), cellulase preparations, are based on the Trichoderma reesei cellulase complex (exo-glucanase, endo-glucanase, and β-glucosidase activities) with additional β-glucosidase and glycoside hydrolase family 61 hydrolyse boosting proteins (Harris 2010). All determinations of the enzymatic hydrolysis samples were performed in duplicates.
Release of glucose during cellulose hydrolysis of STEX SCB is enhanced by the addition of LacGL1 laccase in a dosage dependent manner (data not shown). The combined laccase plus cellulase treatment of STEX SCB were performed at two different conditions: Firstly, at […], 40° C. which is optimal for the LacGL1 laccase (as previously shown from MODDE pH-temp.-activity model, FIG. 8 and thermal stability plots, FIGS. 9, 10), which are slightly less optimal for cellulases; and secondly at 50° C. and pH 5.1, which are the golden standard conditions for optimal performance of CC1 and CC2. From the MODDE data, […]: the type of the cellulase preparation, the addition of LacGL1, the temperature, and the pH of the reaction (FIG. 11, 12). Overall, the highest rate of STEX SCB hydrolysis, considering all of the aforementioned factors, was obtained for the combination of LacGL1-Cellic® CTec2 at pH 5.1 and 50° C. […] The higher pH and temperature enhanced LacGL1-CC2 catalyzed hydrolysis by 12% (FIG. 12).

B1: LacGL1: Fungal laccase from Ganoderma lucidum CBS229.93 (SEQ ID NO: 5/9), recombinantly expressed in Pichia pastoris X-33 (protein, listed as Ganoderma lucidum)
chain: GIGPKTDLTISNADVAPDGYTRAAVVVNGVFPAPLITGNKGDRFQLNVIDQMTNHTMLKSTSIHWHGFFQKGTNWADGPAFINQCPISSGHSFLYDFQVPDQAGTFWYHSHLSTQYCDGLRGPFVVYDPKDPLKKLYDIDDDSTVITLTDWYHVAARLGPRFPLGSDSTLINGLGRSTTNVTADLAVINVTQGKRYRFRLVSLSCDPNYTFSIDDHNMTVIEADGIETQPVTVNAIQIFSAQRYSFVLTANQTIDNYWIRANPNFGNVGFTDGINSAILRYAGADPVEPTTSQQTTQNLLNEVDLHPFVPKRTPGQPTQGGVDTAINMVFNFNGSNFFINNASFVPPTVPVLLQILSGAQAAQDLLPSGSVYTLPVNKSIELTFPATANAPGAPHPFHLHGHAFAVVRSAGSTVYNYDNPVWRDVVSTGTPAAGDNVTIRFQTDNPGPWFLHCHIDFHLEAGFAVVFAEDPTDTSLANPVPKAWSDLCPTYDALSVDDQ
modifications: mat_peptide (1)..(499) Mature LacGL1 laccase (minus signal peptide)
Km ([1]; laccase expressed in Ganoderma lucidum CBS229.93 (native)): 107 µM | Km ([1]; recombinantly expressed in Pichia pastoris): 122 µM | improvement in glucose yields over CC1 at pH 5.1 and 50° C. ([2]; LacGL1-CC1 at pH 4.6, 40° C.): 66% | improvement in glucose yields over LacGL1-CC1 at pH 5.1 and 50° C. ([2]; LacGL1-CC1 at pH 4.6, 40° C.): 48% | total glucose yield higher than CC2 alone ([2]; LacGL1-Cellic CTec2 at pH 5.1, 50° C. vs CC2 alone at pH 4.6, 40° C.): 27.5% | total glucose yield higher than CC2 alone ([2]; LacGL1-Cellic CTec2 at pH 5.1, 50° C. vs CC2 alone under the same conditions): 19% | enhancement of CC1 mediated-hydrolysis ([2]; pH 4.6, 40° C.): 30% | enhancement of LacGL1-CC2 catalyzed hydrolysis by higher pH and temperature ([2]; pH 5.1, 50° C. vs pH 4.6, 40° C.): 12%
